Laboratory results: patent publication US20160272693A1 (ZEALAND PHARMA A S, published 2016)
*1 amine or outer side, *2 acyl side, *3 side chain or, on linkers, in order; H or OH if unused. Bridges are numbered along the chain shown (N, C = ends). [ ]: non-standard residue; d: D form. The star is where a group is joined. C20 diacid = O=C(O)CCCCCCCCCCCCCCCCCCC(=O)*; γGlu = O=C(O)[C@H](CCC(=O)[*:2])N[*:1]; Hyp = O=C(O)[C@@H]1C[C@@H](O)CN1; NMeI = CC[C@H](C)[C@H](NC)C(=O)O; Aad = N[C@@H](CCCC(=O)O)C(=O)O; Orn = NCCC[C@H](N)C(=O)O; Sar = CNCC(=O)O

T1: human amylin receptor 3 (hAMYR3), hCTR2 co-expressed with human receptor activity modifying protein 3 (hRAMP3) (human, UniProt P30988 25-474; O60896 24-148)
T1 sequence (looked up) 1: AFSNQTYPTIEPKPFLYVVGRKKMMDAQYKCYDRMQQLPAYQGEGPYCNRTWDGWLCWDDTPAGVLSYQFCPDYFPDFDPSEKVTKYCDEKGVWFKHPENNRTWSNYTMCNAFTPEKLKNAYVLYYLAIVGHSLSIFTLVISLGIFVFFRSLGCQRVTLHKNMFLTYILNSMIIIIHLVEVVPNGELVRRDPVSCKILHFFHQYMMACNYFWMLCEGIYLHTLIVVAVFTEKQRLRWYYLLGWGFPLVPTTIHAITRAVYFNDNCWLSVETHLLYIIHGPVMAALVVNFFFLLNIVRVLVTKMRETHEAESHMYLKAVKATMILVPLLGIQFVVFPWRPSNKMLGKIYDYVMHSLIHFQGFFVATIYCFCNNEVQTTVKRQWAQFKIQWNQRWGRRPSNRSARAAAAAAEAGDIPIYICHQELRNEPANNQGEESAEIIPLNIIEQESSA
T1 sequence (looked up) 2: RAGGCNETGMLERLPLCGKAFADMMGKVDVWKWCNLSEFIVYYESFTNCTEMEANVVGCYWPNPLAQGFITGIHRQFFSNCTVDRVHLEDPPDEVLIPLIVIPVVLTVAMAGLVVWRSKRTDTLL

B1: [19CD]-isoGlu-R-C( )-GTAT-C( )-ATERLA-Aad-FLQRSSF-Gly(Me)-A-Ile(Me)-LSSTEVGSNT-Hyp-NH2 (Compd. 55) (peptide)
peptide: {C20 diacid}-[γGlu]RCGTATCATERLA[Aad]FLQRSSF[Sar]A[NMeI]LSSTEVGSNT[Hyp]-NH2
modifications: disulfide 3-8
SMILES: CC[C@H](C)[C@@H](C(=O)N[C@@H](CC(C)C)C(=O)N[C@@H](CO)C(=O)N[C@@H](CO)C(=O)N[C@H](C(=O)N[C@@H](CCC(=O)O)C(=O)N[C@H](C(=O)NCC(=O)N[C@@H](CO)C(=O)N[C@@H](CC(N)=O)C(=O)N[C@H](C(=O)N1C[C@H](O)C[C@H]1C(N)=O)[C@@H](C)O)C(C)C)[C@@H](C)O)N(C)C(=O)[C@H](C)NC(=O)CN(C)C(=O)[C@H](Cc1ccccc1)NC(=O)[C@H](CO)NC(=O)[C@H](CO)NC(=O)[C@H](CCCNC(=N)N)NC(=O)[C@H](CCC(N)=O)NC(=O)[C@H](CC(C)C)NC(=O)[C@H](Cc1ccccc1)NC(=O)[C@H](CCCC(=O)O)NC(=O)[C@H](C)NC(=O)[C@H](CC(C)C)NC(=O)[C@H](CCCNC(=N)N)NC(=O)[C@H](CCC(=O)O)NC(=O)[C@@H](NC(=O)[C@H](C)NC(=O)[C@@H]1CSSC[C@H](NC(=O)[C@H](CCCNC(=N)N)NC(=O)CC[C@H](NC(=O)CCCCCCCCCCCCCCCCCCC(=O)O)C(=O)O)C(=O)NCC(=O)N[C@@H]([C@@H](C)O)C(=O)N[C@@H](C)C(=O)N[C@@H]([C@@H](C)O)C(=O)N1)[C@@H](C)O
B2: [19CD]-isoGlu-R-C( )-GTAT-C( )-ATERLAHFLTRSSF-Gly(Me)-A-Ile(Me)-LSSTEVGS-Orn-TP-NH2 (Compd. 47) (peptide)
peptide: {C20 diacid}-[γGlu]RCGTATCATERLAHFLTRSSF[Sar]A[NMeI]LSSTEVGS[Orn]TP-NH2
modifications: disulfide 3-8
SMILES: CC[C@H](C)[C@@H](C(=O)N[C@@H](CC(C)C)C(=O)N[C@@H](CO)C(=O)N[C@@H](CO)C(=O)N[C@H](C(=O)N[C@@H](CCC(=O)O)C(=O)N[C@H](C(=O)NCC(=O)N[C@@H](CO)C(=O)N[C@@H](CCCN)C(=O)N[C@H](C(=O)N1CCC[C@H]1C(N)=O)[C@@H](C)O)C(C)C)[C@@H](C)O)N(C)C(=O)[C@H](C)NC(=O)CN(C)C(=O)[C@H](Cc1ccccc1)NC(=O)[C@H](CO)NC(=O)[C@H](CO)NC(=O)[C@H](CCCNC(=N)N)NC(=O)[C@@H](NC(=O)[C@H](CC(C)C)NC(=O)[C@H](Cc1ccccc1)NC(=O)[C@H](Cc1c[nH]cn1)NC(=O)[C@H](C)NC(=O)[C@H](CC(C)C)NC(=O)[C@H](CCCNC(=N)N)NC(=O)[C@H](CCC(=O)O)NC(=O)[C@@H](NC(=O)[C@H](C)NC(=O)[C@@H]1CSSC[C@H](NC(=O)[C@H](CCCNC(=N)N)NC(=O)CC[C@H](NC(=O)CCCCCCCCCCCCCCCCCCC(=O)O)C(=O)O)C(=O)NCC(=O)N[C@@H]([C@@H](C)O)C(=O)N[C@@H](C)C(=O)N[C@@H]([C@@H](C)O)C(=O)N1)[C@@H](C)O)[C@@H](C)O
B3: [19CD]-isoGlu-R-C( )-NTAT-C( )-ATQRLADFLQRSSF-Gly(Me)-A-Ile(Me)-LSSTEVGSNT-Hyp-NH2 (Compd. 49) (peptide)
peptide: {C20 diacid-γGlu}-RCNTATCATQRLADFLQRSSF[Sar]A[NMeI]LSSTEVGSNT[Hyp]-NH2
modifications: disulfide 2-7
SMILES: CC[C@H](C)[C@@H](C(=O)N[C@@H](CC(C)C)C(=O)N[C@@H](CO)C(=O)N[C@@H](CO)C(=O)N[C@H](C(=O)N[C@@H](CCC(=O)O)C(=O)N[C@H](C(=O)NCC(=O)N[C@@H](CO)C(=O)N[C@@H](CC(N)=O)C(=O)N[C@H](C(=O)N1C[C@H](O)C[C@H]1C(N)=O)[C@@H](C)O)C(C)C)[C@@H](C)O)N(C)C(=O)[C@H](C)NC(=O)CN(C)C(=O)[C@H](Cc1ccccc1)NC(=O)[C@H](CO)NC(=O)[C@H](CO)NC(=O)[C@H](CCCNC(=N)N)NC(=O)[C@H](CCC(N)=O)NC(=O)[C@H](CC(C)C)NC(=O)[C@H](Cc1ccccc1)NC(=O)[C@H](CC(=O)O)NC(=O)[C@H](C)NC(=O)[C@H](CC(C)C)NC(=O)[C@H](CCCNC(=N)N)NC(=O)[C@H](CCC(N)=O)NC(=O)[C@@H](NC(=O)[C@H](C)NC(=O)[C@@H]1CSSC[C@H](NC(=O)[C@H](CCCNC(=N)N)NC(=O)CC[C@H](NC(=O)CCCCCCCCCCCCCCCCCCC(=O)O)C(=O)O)C(=O)N[C@@H](CC(N)=O)C(=O)N[C@@H]([C@@H](C)O)C(=O)N[C@@H](C)C(=O)N[C@@H]([C@@H](C)O)C(=O)N1)[C@@H](C)O
B4: [19CD]-isoGlu-R-C( )-GTAT-C( )-ATERLAHFLTRSSF-Gly(Me)-A-Ile(Me)-LSSTEVGSSTP-NH2 (Compd. 46) (peptide)
peptide: {C20 diacid}-[γGlu]RCGTATCATERLAHFLTRSSF[Sar]A[NMeI]LSSTEVGSSTP-NH2
modifications: disulfide 3-8
SMILES: CC[C@H](C)[C@@H](C(=O)N[C@@H](CC(C)C)C(=O)N[C@@H](CO)C(=O)N[C@@H](CO)C(=O)N[C@H](C(=O)N[C@@H](CCC(=O)O)C(=O)N[C@H](C(=O)NCC(=O)N[C@@H](CO)C(=O)N[C@@H](CO)C(=O)N[C@H](C(=O)N1CCC[C@H]1C(N)=O)[C@@H](C)O)C(C)C)[C@@H](C)O)N(C)C(=O)[C@H](C)NC(=O)CN(C)C(=O)[C@H](Cc1ccccc1)NC(=O)[C@H](CO)NC(=O)[C@H](CO)NC(=O)[C@H](CCCNC(=N)N)NC(=O)[C@@H](NC(=O)[C@H](CC(C)C)NC(=O)[C@H](Cc1ccccc1)NC(=O)[C@H](Cc1c[nH]cn1)NC(=O)[C@H](C)NC(=O)[C@H](CC(C)C)NC(=O)[C@H](CCCNC(=N)N)NC(=O)[C@H](CCC(=O)O)NC(=O)[C@@H](NC(=O)[C@H](C)NC(=O)[C@@H]1CSSC[C@H](NC(=O)[C@H](CCCNC(=N)N)NC(=O)CC[C@H](NC(=O)CCCCCCCCCCCCCCCCCCC(=O)O)C(=O)O)C(=O)NCC(=O)N[C@@H]([C@@H](C)O)C(=O)N[C@@H](C)C(=O)N[C@@H]([C@@H](C)O)C(=O)N1)[C@@H](C)O)[C@@H](C)O
B5: [19CD]-isoGlu-R-C( )-GTAT-C( )-ATERLAHFLTRSSF-Gly(Me)-A-Ile(Me)-LSSTEVGSTT-Hyp-NH2 (Compd. 48) (peptide)
peptide: {C20 diacid}-[γGlu]RCGTATCATERLAHFLTRSSF[Sar]A[NMeI]LSSTEVGSTT[Hyp]-NH2
modifications: disulfide 3-8
SMILES: CC[C@H](C)[C@@H](C(=O)N[C@@H](CC(C)C)C(=O)N[C@@H](CO)C(=O)N[C@@H](CO)C(=O)N[C@H](C(=O)N[C@@H](CCC(=O)O)C(=O)N[C@H](C(=O)NCC(=O)N[C@@H](CO)C(=O)N[C@H](C(=O)N[C@H](C(=O)N1C[C@H](O)C[C@H]1C(N)=O)[C@@H](C)O)[C@@H](C)O)C(C)C)[C@@H](C)O)N(C)C(=O)[C@H](C)NC(=O)CN(C)C(=O)[C@H](Cc1ccccc1)NC(=O)[C@H](CO)NC(=O)[C@H](CO)NC(=O)[C@H](CCCNC(=N)N)NC(=O)[C@@H](NC(=O)[C@H](CC(C)C)NC(=O)[C@H](Cc1ccccc1)NC(=O)[C@H](Cc1c[nH]cn1)NC(=O)[C@H](C)NC(=O)[C@H](CC(C)C)NC(=O)[C@H](CCCNC(=N)N)NC(=O)[C@H](CCC(=O)O)NC(=O)[C@@H](NC(=O)[C@H](C)NC(=O)[C@@H]1CSSC[C@H](NC(=O)[C@H](CCCNC(=N)N)NC(=O)CC[C@H](NC(=O)CCCCCCCCCCCCCCCCCCC(=O)O)C(=O)O)C(=O)NCC(=O)N[C@@H]([C@@H](C)O)C(=O)N[C@@H](C)C(=O)N[C@@H]([C@@H](C)O)C(=O)N1)[C@@H](C)O)[C@@H](C)O
B6: [19CD]-isoGlu-R-C( )-QTAT-C( )-ATERLAHFLQRSSNNF-Gly(Me)-A-Ile(Me)-LSSTEVGSNT-Hyp-NH2 (Compd. 99) (peptide)
peptide: {C20 diacid-γGlu}-RCQTATCATERLAHFLQRSSNNF[Sar]A[NMeI]LSSTEVGSNT[Hyp]-NH2
modifications: disulfide 2-7
SMILES: CC[C@H](C)[C@@H](C(=O)N[C@@H](CC(C)C)C(=O)N[C@@H](CO)C(=O)N[C@@H](CO)C(=O)N[C@H](C(=O)N[C@@H](CCC(=O)O)C(=O)N[C@H](C(=O)NCC(=O)N[C@@H](CO)C(=O)N[C@@H](CC(N)=O)C(=O)N[C@H](C(=O)N1C[C@H](O)C[C@H]1C(N)=O)[C@@H](C)O)C(C)C)[C@@H](C)O)N(C)C(=O)[C@H](C)NC(=O)CN(C)C(=O)[C@H](Cc1ccccc1)NC(=O)[C@H](CC(N)=O)NC(=O)[C@H](CC(N)=O)NC(=O)[C@H](CO)NC(=O)[C@H](CO)NC(=O)[C@H](CCCNC(=N)N)NC(=O)[C@H](CCC(N)=O)NC(=O)[C@H](CC(C)C)NC(=O)[C@H](Cc1ccccc1)NC(=O)[C@H](Cc1c[nH]cn1)NC(=O)[C@H](C)NC(=O)[C@H](CC(C)C)NC(=O)[C@H](CCCNC(=N)N)NC(=O)[C@H](CCC(=O)O)NC(=O)[C@@H](NC(=O)[C@H](C)NC(=O)[C@@H]1CSSC[C@H](NC(=O)[C@H](CCCNC(=N)N)NC(=O)CC[C@H](NC(=O)CCCCCCCCCCCCCCCCCCC(=O)O)C(=O)O)C(=O)N[C@@H](CCC(N)=O)C(=O)N[C@@H]([C@@H](C)O)C(=O)N[C@@H](C)C(=O)N[C@@H]([C@@H](C)O)C(=O)N1)[C@@H](C)O

Molecular target: T1, human amylin receptor 3 (hAMYR3), hCTR2 …
Assay: cell-based or functional assay

hAMYR3 EC50 (nM); cAMP induction	Binder
0.08 nM	B1
0.19 nM	B2
0.15 nM	B3
0.14 nM	B4
0.26 nM	B5

Molecular target: T1, human amylin receptor 3 (hAMYR3), hCTR2 …
Assay: cell-based or functional assay
Remark: another data set of the same source

hAMYR3 EC50 (nM); cAMP induction	Binder
0.08 nM	B1
0.59 nM	B6
